Values belong to the compound of their own block, whether it stands above or below them. Calls of active or inactive are those of the source. The rule behind the calls is not given here.
Tests used:
[1] = molecular target: T1, Bacterial 70S ribosome (Bacteria) (UniProt P0A7V0+P60723+P0AG67+P0A7R5+P0A7R9+P0A7S3+P0A7S9+P0AG59+P0ADZ4+P0A7T3+P0AG63+P0A7T7+P0A7U3+P0A7U7+P68679+P0A7V3+P0A7V8+P0A7W1+P02358+P02359+P0A7W7+P0A7X3+P0A7J3+P0A7J7+P0AA10+P0ADY3+P02413+P0ADY7+P0AG44+P0C018+P0A7K6+P0A7L0+P0A7L3+P0AG48+P61175+P0ADZ0+P60624+P68919+P0A7L8+P0A7M2+P0A7M6+P60422+P0AG51+P0A7N1+P0A7M9+P0A7N4+P0A7N9+P0A7P5+P0A7Q1+Q2EEQ2+P0A7Q6+P60438+P62399+P0AG55+P0A7K2); experiment: Activity of Escherichia coli ribosomal peptidyl transferase using Ac[14C]phe-tRNA as donor substrate assessed as [14C]polyphenylalanine formation after 40 mins by scintillation counting analysis in presence of poly(U) relative to puromycin
[2] = molecular target: T1, Bacterial 70S ribosome (Bacteria); experiment: Activity of Escherichia coli ribosomal peptidyl transferase using Ac[14C]phe-tRNA as donor substrate assessed as [14C]polyphenylalanine formation at 2 x 10^-4 M after 40 mins by double reciprocal plot analysis in presence of poly(U)
[3] = test system: CCCCSC[C@H](N)C(=O)N[C@H]1[C@@H](O)[C@H](n2cnc3c(N(C)C)ncnc32)O[C@@H]1CO; experiment: (§1) Activity of Escherichia coli ribosomal peptidyl transferase using Ac[14C]phe-tRNA as donor substrate assessed as [14C]polyphenylalanine formation after 40 mins by double reciprocal plot analysis in presence of poly(U); conditions: Ribosome
[4] = test system: CN(C)c1ncnc2c1ncn2[C@@H]1O[C@H](CO)[C@@H](NC(=O)[C@@H](N)CSCc2ccccc2)[C@H]1O; experiment: as §1; conditions: Ribosome
[5] = test system: CCCCCCCCSC[C@H](N)C(=O)N[C@H]1[C@@H](O)[C@H](n2cnc3c(N(C)C)ncnc32)O[C@@H]1CO; experiment: as §1; conditions: Ribosome
[6] = test system: CCCSC[C@H](N)C(=O)N[C@H]1[C@@H](O)[C@H](n2cnc3c(N(C)C)ncnc32)O[C@@H]1CO; experiment: as §1; conditions: Ribosome
[7] = test system: CN(C)c1ncnc2c1ncn2[C@@H]1O[C@H](CO)[C@@H](NC(=O)[C@@H](N)CSCCCCCCO)[C@H]1O; experiment: as §1; conditions: Ribosome
[8] = test system: CCCCCCSC[C@H](N)C(=O)N[C@H]1[C@@H](O)[C@H](n2cnc3c(N(C)C)ncnc32)O[C@@H]1CO; experiment: as §1; conditions: Ribosome
[9] = test system: CCCCCSC[C@H](N)C(=O)N[C@H]1[C@@H](O)[C@H](n2cnc3c(N(C)C)ncnc32)O[C@@H]1CO; experiment: as §1; conditions: Ribosome
[10] = test system: COc1ccc(C[C@H](N)C(=O)N[C@H]2[C@@H](O)[C@H](n3cnc4c(N(C)C)ncnc43)O[C@@H]2CO)cc1; experiment: as §1; conditions: Ribosome

- Efficacy [1]: 45.6%
Compound: CCCCCCCCSC[C@H](N)C(=O)N[C@H]1[C@@H](O)[C@H](n2cnc3c(N(C)C)ncnc32)O[C@@H]1CO

- Efficacy [1]: 95.6%
Compound: CN(C)c1ncnc2c1ncn2[C@@H]1O[C@H](CO)[C@@H](NC(=O)[C@@H](N)CSCCCCCCO)[C@H]1O

Compound: CN(C)c1ncnc2c1ncn2[C@@H]1O[C@H](CO)[C@@H](NC(=O)[C@@H](N)CSC(c2ccccc2)c2ccccc2)[C@H]1O
- Activity [2]: inactive

- Activity [2]: inactive
Compound: CCC(CC)SC[C@H](N)C(=O)N[C@H]1[C@@H](O)[C@H](n2cnc3c(N(C)C)ncnc32)O[C@@H]1CO

- Efficacy [1]: 36.2%
Compound: CCCCSC[C@H](N)C(=O)N[C@H]1[C@@H](O)[C@H](n2cnc3c(N(C)C)ncnc32)O[C@@H]1CO

- Efficacy [1]: 67.5%
Compound: CCCCCCSC[C@H](N)C(=O)N[C@H]1[C@@H](O)[C@H](n2cnc3c(N(C)C)ncnc32)O[C@@H]1CO

- Efficacy [1]: 54.3%
Compound: CCCCCSC[C@H](N)C(=O)N[C@H]1[C@@H](O)[C@H](n2cnc3c(N(C)C)ncnc32)O[C@@H]1CO

Compound: Bacterial 70S ribosome (Bacteria) (from UniProt P0A7V0+P60723+P0AG67+P0A7R5+P0A7R9+P0A7S3+P0A7S9+P0AG59+P0ADZ4+P0A7T3+P0AG63+P0A7T7+P0A7U3+P0A7U7+P68679+P0A7V3+P0A7V8+P0A7W1+P02358+P02359+P0A7W7+P0A7X3+P0A7J3+P0A7J7+P0AA10+P0ADY3+P02413+P0ADY7+P0AG44+P0C018+P0A7K6+P0A7L0+P0A7L3+P0AG48+P61175+P0ADZ0+P60624+P68919+P0A7L8+P0A7M2+P0A7M6+P60422+P0AG51+P0A7N1+P0A7M9+P0A7N4+P0A7N9+P0A7P5+P0A7Q1+Q2EEQ2+P0A7Q6+P60438+P62399+P0AG55+P0A7K2)
- Km [3]: 395 µM
- Vmax [3]: 2.43 pmol/min
- Km [4]: 460 µM
- Vmax [4]: 1.36 pmol/min
- Km [5]: 177 µM
- Vmax [5]: 1.38 pmol/min
- Km [6]: 374 µM
- Vmax [6]: 2.86 pmol/min
- Km [7]: 166 µM
- Vmax [7]: 2.71 pmol/min
- Km [8]: 215 µM
- Vmax [8]: 2.46 pmol/min
- Km [9]: 255 µM
- Vmax [9]: 2.36 pmol/min
- Km [10]: 234 µM
- Vmax [10]: 3.99 pmol/min

- Efficacy [1]: 44.8%
Compound: CCCSC[C@H](N)C(=O)N[C@H]1[C@@H](O)[C@H](n2cnc3c(N(C)C)ncnc32)O[C@@H]1CO

- Efficacy [1]: 17.4%
Compound: CN(C)c1ncnc2c1ncn2[C@@H]1O[C@H](CO)[C@@H](NC(=O)[C@@H](N)CSCc2ccccc2)[C@H]1O
